Measured values reported in the Human Domainome abundance scans (Beltran et al. 2025).
± gives the uncertainty stated by the source.

B1: FERM and PDZ domain-containing protein 4, residues 75 to 154; numbered along this chain, Q14CM0 (parent)
chain: APRKVEMRRDPVLGFGFVAGSEKPVVVRSVTPGGPSEGKLIPGDQIVMINDEPVSAAPRERVIDLVRSCKESILLTVIQP

Variants of: B1
Experiment: abundance fitness (aPCA) (normalised: wild type 0, dead -1); higher = more abundant; growth selection in yeast, the domain comes from the species named
Conditions: Homo sapiens

Abundance fitness: each site, then its substitutions
S29: G -0.055 ± 0.021, E 0.007 ± 0.026, W -0.22 ± 0.024, T -0.029 ± 0.027, P -0.826 ± 0.044, C -0.136 ± 0.03, M -0.083 ± 0.029, Y -0.189 ± 0.039, Q -0.026 ± 0.027, I -0.221 ± 0.047, V -0.136 ± 0.023, R -0.069 ± 0.02, D -0.034 ± 0.037, N -0.032 ± 0.041, L -0.152 ± 0.023, A -0.074 ± 0.024, K -0.059 ± 0.032, H -0.139 ± 0.039, F -0.197 ± 0.039
K23: H -0.026 ± 0.043, D -0.042 ± 0.039, A -0.097 ± 0.026, N 0.015 ± 0.041, M -0.01 ± 0.032, F -0.066 ± 0.04, T -0.037 ± 0.031, W -0.076 ± 0.028, P -0.317 ± 0.033, C -0.035 ± 0.035, L -0.066 ± 0.025, Q -0.039 ± 0.034, I -0.085 ± 0.05, V -0.136 ± 0.026
A19: W -0.045 ± 0.03, S -0.066 ± 0.026, G -0.074 ± 0.021, H -0.03 ± 0.046, R -0.83 ± 0.034, E -0.075 ± 0.028, M 0.003 ± 0.033, C -0.001 ± 0.037, Y -0.081 ± 0.043, T -0.005 ± 0.03, Q -0.084 ± 0.033, V 0.003 ± 0.024, F -0.016 ± 0.04, K -0.594 ± 0.045, P -0.029 ± 0.029, I 0.021 ± 0.048, L 0.045 ± 0.024, N -0.286 ± 0.048
G20: F -0.155 ± 0.045, K -0.093 ± 0.032, S -0.002 ± 0.025, E 0.01 ± 0.027, L -0.116 ± 0.025, C -0.094 ± 0.033, D 0.017 ± 0.032, N -0.089 ± 0.047, T -0.061 ± 0.029, I -0.051 ± 0.05, Q -0.03 ± 0.033, W -0.105 ± 0.026, Y -0.067 ± 0.04, H -0.029 ± 0.047
F15: W -0.057 ± 0.029, S -0.777 ± 0.035, M -0.392 ± 0.04, A -0.729 ± 0.034, N -0.848 ± 0.094, V -0.815 ± 0.037, Y -0.039 ± 0.043, C -0.758 ± 0.061, I -0.702 ± 0.087, L -0.26 ± 0.025, T -0.819 ± 0.053, D -0.781 ± 0.063, P -0.857 ± 0.047, K -0.905 ± 0.067, R -0.911 ± 0.036, E -0.805 ± 0.045, Q -0.776 ± 0.048, H -0.828 ± 0.089
L13: S -0.013 ± 0.094, V -0.003 ± 0.094, F -0.046 ± 0.17, W -0.046 ± 0.084
V27: N -0.851 ± 0.099, P -0.764 ± 0.058, A -0.591 ± 0.033, F -0.79 ± 0.092, C -0.282 ± 0.038, M -0.799 ± 0.063, L -0.584 ± 0.031, S -0.947 ± 0.053, R -0.958 ± 0.037, K -0.916 ± 0.073, W -1.1 ± 0.068, H -0.878 ± 0.14, T -0.705 ± 0.053, G -0.938 ± 0.032, Y -1.02 ± 0.17, D -0.802 ± 0.065, I -0.07 ± 0.039, E -0.725 ± 0.043
P11: R -0.123 ± 0.021, N -0.157 ± 0.043, L -0.143 ± 0.023, Y -0.391 ± 0.085, I -0.162 ± 0.042, T -0.111 ± 0.029, V -0.247 ± 0.026, M -0.148 ± 0.031, G -0.128 ± 0.021, K -0.09 ± 0.031, H -0.208 ± 0.054, W -0.405 ± 0.029, Q -0.131 ± 0.03
V26: A -0.113 ± 0.025, D -0.135 ± 0.039, G -0.446 ± 0.023, M -0.012 ± 0.032, C -0.07 ± 0.033, S -0.116 ± 0.025, F -0.123 ± 0.043, Q -0.011 ± 0.03, L -0.038 ± 0.024, T 0.008 ± 0.028, I -0.025 ± 0.043, P -0.702 ± 0.042, H -0.159 ± 0.044, K -0.048 ± 0.028, Y -0.123 ± 0.043, E -0.036 ± 0.026, W -0.379 ± 0.029
V25: W -0.078 ± 0.028, T 0.004 ± 0.031, E -0.796 ± 0.047, S 0 ± 0.026, Y -0.144 ± 0.047, F -0.127 ± 0.035, C -0.005 ± 0.032, N -0.23 ± 0.046, H -0.135 ± 0.043, M 0.157 ± 0.046, R -0.326 ± 0.023, A -0.052 ± 0.026, K -0.889 ± 0.068, I -0.116 ± 0.036, G -0.467 ± 0.025, Q -0.373 ± 0.034, L 0.006 ± 0.024, D -0.535 ± 0.048
P24: H -0.501 ± 0.05, L -0.77 ± 0.037, Y -0.691 ± 0.081, C -0.51 ± 0.045, M -0.53 ± 0.042, V -0.725 ± 0.034, N -0.333 ± 0.054, Q -0.472 ± 0.041, W -0.947 ± 0.049, A -0.448 ± 0.029, K -0.64 ± 0.049, E -0.51 ± 0.036, R -0.572 ± 0.025, G -0.329 ± 0.022, S -0.48 ± 0.031, F -0.686 ± 0.076, D -0.433 ± 0.05, T -0.471 ± 0.037, I -0.777 ± 0.08
G16: I -1.32 ± 0.2, N -0.677 ± 0.099, P -0.977 ± 0.063, T -0.946 ± 0.061, F -1.03 ± 0.13, C -0.956 ± 0.074, Q -0.889 ± 0.066, S -0.813 ± 0.039, A -0.499 ± 0.027, Y -1.3 ± 0.27, V -1.08 ± 0.049, K -0.911 ± 0.066, R -1.04 ± 0.042, H -1.01 ± 0.14, L -1.15 ± 0.066, D -0.783 ± 0.057
S21: L -0.049 ± 0.026, K -0.009 ± 0.033, I -0.234 ± 0.059, H -0.028 ± 0.048, T -0.12 ± 0.031, C -0.047 ± 0.033, G 0.043 ± 0.022, P -0.169 ± 0.031, D -0.003 ± 0.036, N -0.002 ± 0.047, M -0.033 ± 0.034, R -0.082 ± 0.022, W -0.088 ± 0.027, A 0.005 ± 0.025, V -0.25 ± 0.026, F -0.021 ± 0.037
V30: P -0.864 ± 0.055, E -0.901 ± 0.048, S -0.743 ± 0.035, F -0.416 ± 0.051, Q -0.801 ± 0.052, R -0.914 ± 0.031, Y -0.521 ± 0.049, T -0.089 ± 0.029, H -0.967 ± 0.1, W -0.756 ± 0.037, K -0.87 ± 0.056, A -0.499 ± 0.026, M -0.335 ± 0.035, L -0.115 ± 0.024, I -0.081 ± 0.035, C -0.102 ± 0.031, D -0.804 ± 0.065
V12: S -0.006 ± 0.031, W -0.14 ± 0.038, I -0.055 ± 0.04, M 0.007 ± 0.041, R -0.023 ± 0.027, L -0.001 ± 0.029, Y -0.065 ± 0.049, P -0.545 ± 0.046, E -0.068 ± 0.036, K 0.004 ± 0.04, G -0.048 ± 0.025, D 0.004 ± 0.046, F -0.089 ± 0.054, T 0.049 ± 0.039, C -0.056 ± 0.04, N 0.025 ± 0.056, Q 0 ± 0.037, H 0.043 ± 0.051
R28: H -0.08 ± 0.039, T 0.005 ± 0.029, Q 0.027 ± 0.031, P -0.725 ± 0.052, C -0.136 ± 0.032, M -0.065 ± 0.029, A -0.032 ± 0.023, E 0.034 ± 0.025, L -0.036 ± 0.024, N 0.001 ± 0.038, K -0.002 ± 0.03, F -0.134 ± 0.043, G -0.014 ± 0.02, Y -0.137 ± 0.037, D -0.038 ± 0.034, V -0.089 ± 0.022
G14: K -0.247 ± 0.04, V -0.779 ± 0.039, P -0.963 ± 0.073, D -0.025 ± 0.036, F -0.822 ± 0.077, C -0.502 ± 0.042, N -0.131 ± 0.044, S -0.273 ± 0.028, I -0.719 ± 0.062, H -0.303 ± 0.043, Y -0.761 ± 0.068, R -0.496 ± 0.028, W -1 ± 0.071, T -0.718 ± 0.044, L -0.677 ± 0.035, M -0.404 ± 0.04
F17: L -0.294 ± 0.026, A -0.857 ± 0.041, W -0.218 ± 0.026, I -0.322 ± 0.043, E -0.832 ± 0.043, K -0.842 ± 0.051, C -0.637 ± 0.044, H -0.806 ± 0.074, Y -0.395 ± 0.052, D -0.921 ± 0.077, G -0.897 ± 0.032, M -0.381 ± 0.035, T -0.887 ± 0.054, V -0.704 ± 0.031, N -0.923 ± 0.098, P -0.916 ± 0.066
T31: A -0.045 ± 0.025, H -0.016 ± 0.029, I -0.175 ± 0.03, N -0.055 ± 0.029, D -0.058 ± 0.036, F -0.149 ± 0.033, L -0.168 ± 0.023, C -0.108 ± 0.033, M -0.067 ± 0.032, G -0.222 ± 0.029, Q -0.029 ± 0.028, P -0.59 ± 0.036, K -0.012 ± 0.029, E -0.013 ± 0.032
V18: Y -0.078 ± 0.046, M -0.075 ± 0.034, L -0.142 ± 0.025, I -0.01 ± 0.038, G -0.112 ± 0.02, T -0.092 ± 0.028, D -0.055 ± 0.035, F -0.255 ± 0.044, N -0.104 ± 0.049, E -0.019 ± 0.025, S -0.095 ± 0.027, K -0.118 ± 0.032, P -1.03 ± 0.073, C -0.041 ± 0.032, H -0.048 ± 0.048, W -0.38 ± 0.03, A -0.058 ± 0.023
E22: C -0.074 ± 0.034, Q -0.029 ± 0.035, P -0.979 ± 0.086, I -0.336 ± 0.05, N -0.125 ± 0.048, M -0.22 ± 0.035, H -0.202 ± 0.051, A -0.075 ± 0.024, T -0.156 ± 0.034, G -0.026 ± 0.021, K -0.199 ± 0.035, W -0.305 ± 0.029, Y -0.012 ± 0.044, S -0.126 ± 0.025, V -0.066 ± 0.024, L -0.315 ± 0.028
